Test results as given in patent US20250092130A1 (INNATE PHARMA, published 2025).

How the values were obtained:
[1] = target: KIR3DL2 mutant 11 (P179T, S181T) (human, UniProt P43630 22-455); assay: binding to cells transfected with KIR3DL2 mutants
[2] = target: KIR3DL2 mutant 11A1 (V178A, H180S) (human, UniProt P43630 22-455); assay: binding to cells transfected with KIR3DL2 mutants
[3] = target: KIR3DL2 mutant M11A4 (E130S, H131S, R145S) (human, UniProt P43630 22-455); assay: binding to cells transfected with KIR3DL2 mutants
Sequence of KIR3DL2 mutant M11A4 (E130S, H131S, R145S) (P43630 other isoform, or with tags, fused parts or gaps E130S H131S R145S E130S H131S R145S): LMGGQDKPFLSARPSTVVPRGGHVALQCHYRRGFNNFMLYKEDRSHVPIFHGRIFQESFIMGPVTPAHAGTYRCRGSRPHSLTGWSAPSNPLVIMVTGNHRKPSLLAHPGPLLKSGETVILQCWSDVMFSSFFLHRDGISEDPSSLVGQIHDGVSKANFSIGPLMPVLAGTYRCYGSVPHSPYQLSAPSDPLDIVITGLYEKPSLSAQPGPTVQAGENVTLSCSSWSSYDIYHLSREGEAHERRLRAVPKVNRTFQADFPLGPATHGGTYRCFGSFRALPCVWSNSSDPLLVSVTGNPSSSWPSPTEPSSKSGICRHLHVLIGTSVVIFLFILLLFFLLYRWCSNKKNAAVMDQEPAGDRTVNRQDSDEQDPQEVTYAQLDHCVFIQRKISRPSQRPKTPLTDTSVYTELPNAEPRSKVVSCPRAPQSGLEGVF

[4] = target: T1, human KIR3DL2 (wild-type, allele *002) (human, UniProt P43630 22-455); assay: flow cytometry on HUT78, COU-L and HEK-293T/KIR3DL2 Domain 0-eGFP cells; Biacore on rec KIR3DL2 chips
T1 construct: also called CD158k; WTaKIR3DL2
T1 sequence (P43630 22-455 E158D): as the sequence (P43630 other isoform, or with tags, fused parts or gaps E130S H131S R145S E130S H131S R145S) above, with S130E, S131H, S145R counted along it
Procedure: Antibodies which bind KIR3DL2 but not closely-related KIR3DL1 were generated by immunizing mice with recombinant KIR3DL2-Fc fusion protein. Supernatants (SN) of the growing hybridomas were tested by flow cytometry on Sézary Syndrome cell lines (HUT78, COU-L) and HEK-293T/KIR3DL2 Domain 0—eGFP. Potentially interesting hybridomas selected from the initial screening were cloned by limiting dilution techniques in 96-well plates. The secondary screen involved selection of hybridomas of interest by testing supernatants of the subclones by flow cytometry on HUT78, COU-L, HEK-293T/KIR3DL1 Domain 0—eGFP and HEK-293T/KIR3DL2 Domain 0—eGFP. Positive subclones were injected into mice to produce ascitis and antibodies of interest were purified before being tested in a Biacore assay using rec KIR3DL2 chips, followed by various assay formats based on binding to human KIR3DL2-expressing cells.

[5] = target: T1, human KIR3DL2 (wild-type, allele *002); assay: immunohistochemistry (DAB) on frozen sections of RAJI-KIR3DL2 tumors and cell lines
Procedure: Tumor biopsies from RAJI-KIR3DL2 models and RAJI-KIR3DL2 cell lines were obtained and staining was performed on frozen samples using AZ158 antibody (see WO2010/081890) or antibodies 12B11 (see Example 1). KIR3DL2 was stained with anti-KIR3DL2 antibody by DAB chromogenic detection according to standard protocols, adapted for immunostaining with BenchMark XT (Ventana, Roche). For all staining control isotype (mIgG1) and control DAB were performed.

[6] = target: T2, KIR3DL2 mutant having I60N and G62S substitutions (human, UniProt P43630 22-455); assay: binding to KIR3DL2 mutants
T2 construct: It says 'mutants'; also called mutants having 160N and G62S substitutions
T2 sequence (P43630 other isoform, or with tags, fused parts or gaps I60N G62S I60N G62S): as the sequence (P43630 other isoform, or with tags, fused parts or gaps E130S H131S R145S E130S H131S R145S) above, with I60N, G62S, S130E, S131H, S145R counted along it

Sequence of KIR3DL2 mutant 11 (P179T, S181T) (P43630 other isoform, or with tags, fused parts or gaps P179T S181T P179T S181T): as the sequence (P43630 other isoform, or with tags, fused parts or gaps E130S H131S R145S E130S H131S R145S) above, with S130E, S131H, S145R, P179T, S181T counted along it
Sequence of KIR3DL2 mutant 11A1 (V178A, H180S) (P43630 other isoform, or with tags, fused parts or gaps V178A H180S V178A H180S): as the sequence (P43630 other isoform, or with tags, fused parts or gaps E130S H131S R145S E130S H131S R145S) above, with S130E, S131H, S145R, V178A, H180S counted along it

Row | Binder | binding result [1] | binding result [2] | binding result [3] | binding result [4] | binding result [5] | binding result [6]
1 | antibody 19H12 (antibody, IgG2b, V domains shown, Mouse monoclonal from a hybridoma; also called anti-KIR3DL2 19H12) VH: QIQLVQSGPELKKPGETVKISCKASGYTFTNFGMNWVKQAPGKGLKWMGWINTYTGEPTYADDFKGRFAFSLETSASTAYLQINNLKNEDMATYFCARNGNFGYYFDYWGQGTTLTVSS VL: DVLMTQTPLSLPVSLGDQASFSCRSSQNIVHSNGNTYLEWYLQKPGQSPSLLIYKVSNRFSGVPDRFSGSGSGTDFTLKITRVEAEDLGVYYCFQGSHVPFTFGSGTKLEIK | no binding | no binding | no binding | binds |  | 
2 | antibody 12B11 (antibody, IgG1, V domains shown, Mouse monoclonal) VH: QLVQSGPELKNPGETVKISCKASGYTFTNYGMNWVKQAPGKGLKWMGWINTYTGEPTYADDFKGRFAFSLETSASTAYLQINNLKNEDTATYFCAHGPWLAYWGQGTLVTVS VL: DIKMTQSPSSMYASLGERVTITCKASQDINVYLSWFQQKPGKSPKTLIYRAIRLVDGVPSRFSGSGSGQDYSLTISSLDYEDMGIYYCLQYDELPYTFGGGTKLEIE | no binding | no binding |  |  | binds | 
3 | antibody 2B12 (antibody, V domains shown) VH: QIQLVQSGPELKKPGETVRISCKASGYTFTTAGMQWVQKTPGKGLKWIGWINSHSGVPKYAEDFKGRFAFSLETSASTAYLQISTLKNEDTATYFCARGGDEGVMDYWGQGTSVTVS VL: DIVMTQSHKFMSTSLGDRVSFTCKASQDVSTAVAWYQQKPGQSPKLLIYWTSTRHTGVPDRFTGSGSGTDYTLTISSVQAEDLALYYCQQHYSTPWTFGGGTKLEIK |  |  |  |  |  | no binding
